Measured values taken from patent US20260317429 (published 2026).
Residue numbers refer to the chain shown, from its start. Like-named read-outs stand apart in the source and are kept apart here. Blank lines part the entries; values can stand above or below the binder they belong to.

Experiments:
FGFR2IIIb-Fc [1] = target: T1, FGFR2IIIb-Fc (human, UniProt P21802); test: competition ELISA, FGF10
FGFR2IIIb on cells [2] = target: T2, FGFR2IIIb on cells (human, UniProt P21802); test: FACS, SNU-16
FGFR2IIIb-Fc [3] = target: T1, FGFR2IIIb-Fc; test: competition ELISA, FGF1
FGFR2IIIb on cells [4] = target: T2, FGFR2IIIb on cells; test: FACS, CHO-FGFR2IIIb
Target sequence in this assay (P21802 22-377): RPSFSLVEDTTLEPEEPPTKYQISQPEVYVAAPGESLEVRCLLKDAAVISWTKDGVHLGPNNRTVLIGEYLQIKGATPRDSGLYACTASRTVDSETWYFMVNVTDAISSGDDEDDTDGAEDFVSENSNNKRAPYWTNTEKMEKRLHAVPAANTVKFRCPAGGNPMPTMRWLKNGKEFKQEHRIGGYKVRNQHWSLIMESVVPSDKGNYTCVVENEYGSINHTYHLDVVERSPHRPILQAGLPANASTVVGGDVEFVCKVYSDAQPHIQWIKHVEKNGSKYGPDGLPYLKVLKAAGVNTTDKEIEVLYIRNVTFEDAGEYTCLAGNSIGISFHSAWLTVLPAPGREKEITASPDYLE

FGFR2IIIb-Fc [5] = target: T1, FGFR2IIIb-Fc; test: competition ELISA, FGF7
FGFR2IIIb-his (ECD) [6] = target: T3, FGFR2IIIb-his (ECD) (human); test: ELISA
T3 chain: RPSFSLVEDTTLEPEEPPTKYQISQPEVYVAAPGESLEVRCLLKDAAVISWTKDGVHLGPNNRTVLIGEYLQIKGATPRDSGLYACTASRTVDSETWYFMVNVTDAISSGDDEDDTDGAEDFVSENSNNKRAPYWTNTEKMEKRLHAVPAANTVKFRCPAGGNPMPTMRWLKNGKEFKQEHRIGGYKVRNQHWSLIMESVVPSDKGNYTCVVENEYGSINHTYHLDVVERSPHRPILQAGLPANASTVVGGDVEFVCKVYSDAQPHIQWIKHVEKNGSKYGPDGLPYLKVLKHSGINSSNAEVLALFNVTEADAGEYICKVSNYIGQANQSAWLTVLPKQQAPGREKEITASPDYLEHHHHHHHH

FGFR2IIIb-Fc [7] = target: T1, FGFR2IIIb-Fc; test: competition ELISA, FGF1; remark: listed apart in the source
FGFR2IIIb-Fc [8] = target: T1, FGFR2IIIb-Fc; test: competition ELISA, FGF10; remark: listed apart in the source
FGFR2IIIb on cells [9] = target: T2, FGFR2IIIb on cells; test: FACS, CHO-FGFR2IIIb; remark: listed apart in the source
FGFR2IIIb-Fc [10] = target: T1, FGFR2IIIb-Fc; test: competition ELISA, FGF7; remark: listed apart in the source
FGFR2IIIb-his (ECD) [11] = target: T3, FGFR2IIIb-his (ECD); test: ELISA
FGFR2IIIb on cells [12] = target: T2, FGFR2IIIb on cells; test: FACS, SNU-16; remark: listed apart in the source
Target sequence in this assay (P21802 22-377): as the sequence (P21802 22-377) above

FGFR2IIIb-his (ECD) [13] = target: T3, FGFR2IIIb-his (ECD); test: SPR
FGFR2IIIc-his (ECD) = FGFR2IIIc-his (ECD) (human); test: ELISA
FGFR2IIIb-Fc [14] = target: T1, FGFR2IIIb-Fc; test: competition ELISA, FGF7; remark: listed apart in the source
FGFR2IIIb-Fc [15] = target: T1, FGFR2IIIb-Fc; test: competition ELISA, FGF10; remark: listed apart in the source
FGFR2IIIb-his (ECD) [16] = target: T3, FGFR2IIIb-his (ECD); test: ELISA
FGFR2IIIb-Fc [17] = target: T1, FGFR2IIIb-Fc; test: competition ELISA, FGF1; remark: listed apart in the source
Target sequence in this assay (P21802 22-377): as the sequence (P21802 22-377) above

FGFR2IIIb-Fc [18] = target: T1, FGFR2IIIb-Fc; test: competition ELISA, FGF10; remark: listed apart in the source
Target sequence in this assay (P21802 22-377): as the sequence (P21802 22-377) above

mouse FGFR2IIIb = target: T4, mouse FGFR2IIIb (mouse, UniProt P21803); test: ELISA
T4 chain: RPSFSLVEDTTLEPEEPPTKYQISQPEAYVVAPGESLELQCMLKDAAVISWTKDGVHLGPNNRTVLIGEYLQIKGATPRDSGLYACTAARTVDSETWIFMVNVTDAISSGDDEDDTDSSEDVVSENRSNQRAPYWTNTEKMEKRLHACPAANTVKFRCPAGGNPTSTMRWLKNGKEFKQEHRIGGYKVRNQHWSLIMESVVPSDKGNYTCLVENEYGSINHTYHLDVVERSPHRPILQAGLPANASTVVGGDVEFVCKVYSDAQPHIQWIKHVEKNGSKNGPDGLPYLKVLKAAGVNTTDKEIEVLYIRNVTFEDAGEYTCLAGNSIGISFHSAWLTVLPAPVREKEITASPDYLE

IC50 (FGFR2IIIb-Fc [1]): 0.745 µg/mL
EC50 (FGFR2IIIb on cells [2]): 1.64 µg/mL
IC50 (FGFR2IIIb-Fc [3]): 0.904 µg/mL
EC50 (FGFR2IIIb on cells [4]): 0.342 µg/mL
IC50 (FGFR2IIIb-Fc [5]): 0.694 µg/mL
EC50 (FGFR2IIIb-his (ECD) [6]): 0.0404 µg/mL
IC50 (FGFR2IIIb-Fc [7]): 0.692 µg/mL
IC50 (FGFR2IIIb-Fc [8]): 0.84 µg/mL
EC50 (FGFR2IIIb on cells [9]): 1.01 µg/mL
IC50 (FGFR2IIIb-Fc [10]): 0.603 µg/mL
EC50 (FGFR2IIIb-his (ECD) [11]): 0.048 µg/mL
EC50 (FGFR2IIIb on cells [12]): 0.74 µg/mL
Kd (FGFR2IIIb-his (ECD) [13]): 81.3 nM
B1: III-0 (antibody, V domains shown)
VH: QVQLQQPGAELVRPGASVKMSCKASGYTFANYNMHWVKQTPRQGLEWIGAIYPGNGDTSYNQKFKGKATLTADKSSSTAYMQLSSLTSEDSAVYYCARGDFGYWGQGTTLTVSS
VL: DIVMTQSHKFMSTSVGDRVTITCKASQDVNIDVAWYQQKPGQSPKLLIYSASYRYTGVPDRFTGSGSGTDFTFTISSVQAEDLAVYYCQQHYSTPYTFGGGTKLEIK

binding result (FGFR2IIIc-his (ECD)): no binding
IC50 (FGFR2IIIb-Fc [14]): 0.417 µg/mL
IC50 (FGFR2IIIb-Fc [15]): 0.545 µg/mL
EC50 (FGFR2IIIb-his (ECD) [16]): 0.05 µg/mL
B2: 27E9A11 (antibody, V domains shown)
VH: B1 VH
VL: B1 VL

EC50 (FGFR2IIIb on cells [4]): 0.19 µg/mL
IC50 (FGFR2IIIb-Fc [17]): 1.18 µg/mL
EC50 (FGFR2IIIb-his (ECD) [11]): 0.051 µg/mL
EC50 (FGFR2IIIb on cells [12]): 0.319 µg/mL
IC50 (FGFR2IIIb-Fc [18]): 0.976 µg/mL
Kd (FGFR2IIIb-his (ECD) [13]): 1.24 nM
B3: III-11 (antibody, V domains shown)
VH: QVQLVQSGAEVKKPGSSVKVSCKASGYTFAIYNMHWVRQAPGQGLEWIGAIYPDNGDTFYNQKFKGKATLTADKSTSTAYMELSSLRSEDTAVYYCARGDFGYWGQGTLVTVSS
VL: DIVMTQSPSSLSASVGDRVTITCKASQDVNIDPAWYQQKPGKAPKLLIYLASYRYTGVPSRFSGSGSGTDFTFTISSLQPEDFATYYCQQHYSTPYTFGQGTKLEIK

EC50 (FGFR2IIIb on cells [4]): 0.263 µg/mL
IC50 (FGFR2IIIb-Fc [17]): 0.974 µg/mL
EC50 (FGFR2IIIb-his (ECD) [11]): 0.058 µg/mL
EC50 (FGFR2IIIb on cells [12]): 0.526 µg/mL
IC50 (FGFR2IIIb-Fc [18]): 0.937 µg/mL
Kd (FGFR2IIIb-his (ECD) [13]): 1.26 nM
B4: III-14 (antibody, V domains shown)
VH: B3 VH with D54G
VL: B3 VL with P33V, H91T

IC50 (FGFR2IIIb-Fc [17]): 1.08 µg/mL
IC50 (FGFR2IIIb-Fc [18]): 0.999 µg/mL
Kd (FGFR2IIIb-his (ECD) [13]): 1.32 nM
B5: III-12 (antibody, V domains shown)
VH: B3 VH with I31N, F59S
VL: B3 VL with P33V, H91T

IC50 (FGFR2IIIb-Fc [1]): 0.724 µg/mL
EC50 (FGFR2IIIb on cells [4]): 0.257 µg/mL
IC50 (FGFR2IIIb-Fc [7]): 0.581 µg/mL
IC50 (FGFR2IIIb-Fc [10]): 0.565 µg/mL
EC50 (FGFR2IIIb-his (ECD) [11]): 0.052 µg/mL
EC50 (FGFR2IIIb on cells [12]): 0.471 µg/mL
EC50 (mouse FGFR2IIIb): 0.127 µg/mL
Kd (FGFR2IIIb-his (ECD) [13]): 68.1 nM
B6: III-10 (antibody, V domains shown)
VH: B3 VH with I31N, D54G, F59S
VL: B3 VL with P33V, L50S

IC50 (FGFR2IIIb-Fc [17]): 0.966 µg/mL
IC50 (FGFR2IIIb-Fc [18]): 0.905 µg/mL
Kd (FGFR2IIIb-his (ECD) [13]): 1.23 nM
B7: III-13 (antibody, V domains shown)
VH: B3 VH with F59S
VL: B3 VL with P33V, H91T

EC50 (FGFR2IIIb on cells [4]): 0.26 µg/mL
IC50 (FGFR2IIIb-Fc [17]): 0.941 µg/mL
EC50 (FGFR2IIIb-his (ECD) [11]): 0.042 µg/mL
EC50 (FGFR2IIIb on cells [12]): 0.378 µg/mL
IC50 (FGFR2IIIb-Fc [18]): 0.805 µg/mL
Kd (FGFR2IIIb-his (ECD) [13]): 1.04 nM
B8: III-15 (antibody, V domains shown)
VH: B3 VH
VL: B3 VL with P33V, H91T
